Data as given in patent US12391751B2, “Antibody against advanced glycation end products and use thereof” (Bloom Technology Corporation, priority 2018, dated 2025).

How the values were obtained:
[1] = test system: HUVEC (human umbilical vein endothelial cells); assay: Neutralization test of vascular endothelial cell lumen formation inhibition (Example 14); assay type: cell-based; conditions: antibody pre-reacted with Glycer-AGEs-BSA; HUVEC, 8 hours
Experimental: Matrigel matrix (Corning Inc.) was placed in a refrigerator and thawed overnight. The thawed Matrigel matrix was added at 300 μL/well to a 12-well plate (Corning Inc.) and hardened by still standing at 37° C. for 1 hour in a CO2 incubator (ESPEC Corp.).
(§1) 10 μL of Glycer-AGEs-BSA (10 mg/mL) prepared in Example 1 or 10 μL of control BSA (10 mg/mL), phosphate-buffered saline (PBS, FUJIFILM Wako Pure Chemical Corp.), and 90 μL of SJ-5 (10 mg/mL) or a control antibody (10 mg/mL) were added to a 1.5 mL tube (Watson) and left standing at room temperature for 10 minutes. Then, a supernatant was recovered by centrifugation at 14000 rpm for 15 minutes using a centrifuge (Thermo Fisher Scientific Inc.).
HUVEC (human umbilical vein endothelial cells, National Institutes of Biomedical Innovation, Health and Nutrition, JCRB cell bank) was cultured in a 10 cm dish (Corning Inc.) using 10 mL of a medium for HUVEC (KAC Co., Ltd.).
The cultured HUVEC was washed with 10 mL of PBS. Then, 1 mL of trypsin-EDTA (FUJIFILM Wako Pure Chemical Corp.) was added thereto and left standing at room temperature for 3 minutes. […]
After the centrifugation, the supernatant was discarded, and precipitated cells were resuspended by the addition of 1 mL of a medium for HUVEC. […] Then, the number of live cells was counted in Auto Cell Counter EVE (NanoEnTek Inc.). […]

[2] = test system: protein modified with the novel structure in human serum; assay: Western blotting of human serum protein purified with PB-1 antibody column (Example 37); assay type: binding; conditions: PB-1 as primary antibody; versus secondary antibody only
Experimental: The solvent for the PB-1 antibody was replaced with a coupling buffer solution (0.2 M sodium carbonate, 0.5 M NaCl, pH 8.3) through a PD10 column (GE Healthcare Japan Corp.) to prepare 1 mL of a 10 mg/mL PB-1 antibody solution. The coupling support used was NHS-activated Sepharose 4 Fast Flow (GE Healthcare Japan Corp.). 10 mL of 1 mM HCl cooled in an ice bath was injected to 1 mL of NHS-activated Sepharose 4 Fast Flow, immediately thereafter mixed with the preliminarily prepared 10 mg/mL PB-1 antibody solution, and mixed by inversion (4° C., overnight) using a rotator (Taitec Corp.) so that the PB-1 antibody was immobilized to the coupling support. Then, 3 mL each of a buffer solution for blocking (0.1 M Tris-HCl, pH 8.0) and a buffer solution for washing (0.1 M sodium acetate, 0.5 M NaCl, pH 5.0) was injected thereto in order, and this operation was repeated three times. Finally, the solvent was replaced by the injection of 10 mL of PBS, followed by storage at 4° C.
The purification sample used was human serum (pool) (Cosmo Bio Co., Ltd.). […] Each fraction obtained by purification was analyzed by electrophoresis (SDS-PAGE) according to a routine method. […]

[3] = test system: HUVEC; assay: Neutralization test of vascular endothelial cell lumen formation inhibition using PB-1 (Example 35); assay type: cell-based, human; conditions: PB-1 pre-reacted with Glycer-AGEs-BSA; HUVEC, 8 hours
Experimental: Matrigel matrix was prepared by the same operation as in Example 14.
as §1, with “1,” for “1 or”, “of” for “of control BSA (10 mg/mL),”, “the PB-1 antibody” for “SJ-5”
(3) A lumen formation inhibition test was conducted by the same operation as in Example 14. As shown in the drawing, HUVEC was confirmed to form a lumen in the Matrigel matrix in the control BSA addition group. […] Furthermore, this inhibition of lumen formation was neutralized by the reaction solution of PB-1.

Molecule | neutralization of lumen formation inhibition by Glycer-AGEs-BSA [1] | protein band detection in Western blotting [2] | neutralization of lumen formation inhibition by Glycer-AGEs-BSA [3]
SJ-5: mouse monoclonal antibody raised against GAL13-MSA; heavy-chain variable region SEQ ID NO 4, light-chain variable region SEQ ID NO 8 (antibody, listed as Mus musculus, V domains shown) VH: EVMLVESGGRLVKPGGSLKLSCAASGFTFSSYGMSWVRQTPEKRLEWVATISGGGSYTYYPDSVKGRFTISRDNVKNNLYLQMSSLRSEDTALYYCARRGAYGDYGWFAYWGQGTLVTVSA VL: DIVLTQSPATLSVTPGDSVSLSCRASQSINNNLHWYQQKSHESPRLLIKCASQSISGIPSRFSGSGSGTDFTLSINSVETEDFGMYFCQQSNSWPLTFGAGTKLELK | neutralized | – | –
PB-1: mouse monoclonal antibody raised against A-peak-BSA; heavy-chain variable region SEQ ID NO 18, light-chain variable region SEQ ID NO 22 (antibody, listed as Mus musculus, V domains shown) VH: EVRLQQSGPELVKPGTSVKISCKASGYSFTGYYMHWVKQSPVKSLEWIGRIIPYNGATSYNQNFKDKASLTVDKSSRTAYMDLHSLTSEDSAVYYCARSRYYGRAPYYFDYWGQGTTLTVSS VL: DVVVTQTPLSLPVSLGDQASISCRSSQSIVHSNGNTYLEWYLQKPGQSPKLLIYKVSNRFSGVPDRISGSGSGTDFTLKISRVEAGDLGVYSCFQGSHVPFTFGSGTKLEIK | – | a band was detected | neutralized
